The results in this text go back to patent US20050191706A1.

For one experiment, the target named is Lβ11H, Dβ57A. Briefly: flow. The following applies: chains peptide; modification not given.
The target in the next experiment is Lβ26F. The experiment is described as follows: flow. To be noted: chains peptide; modification not given.

B1: bio-HA308-316 (peptide)
chain: PKYVKQNTLKLAT
In the case of B1, the Kd was determined as 8.56 µM in the experiment with Lβ11H, Dβ57A and 3.72 µM with Lβ26F.

The Kd is a measure of binding affinity in units of concentration. Lower therefore signals tighter binding.
